According to PMC5435683, “Crystal structure of TAZ-TEAD complex reveals a distinct interaction mode from that of YAP-TEAD complex” (Scientific Reports, 2017):
Positions count from the first letter of the chain named.

B1: mTAZ (residues 25-57) (domain or fragment, mouse, UniProt Q9EPK5 25-57, looked up)
chain: DTDLEALFNSVMNPKPSSWRKKILPESFFKEPD
notes: TAZ (WWTR1), mouse, residues 25-57 (helix α1, 13-residue loop, helix α2); Cloned with mTEAD4 in a modified pETDuet-1 vector; also called mouse TAZ; not shown: His6, N-terminal, cleaved
B2: mTAZ (residues 25-57) Asn33Cys (domain or fragment, mouse, UniProt Q9EPK5 25-57, looked up)
chain: B1 chain with N9C
notes: TAZ (WWTR1), mouse, residues 25-57, Asn33 replaced with cysteine for disulfide cross-linking; In the cross-linked sample Cys33 of two copies is joined by a disulfide (copper phenanthroline); in the control and DTT samples it is not; also called TAZ Asn33Cys; source: E. coli BL21 (DE3), co-expressed with mTEAD4 (210-427) Cys360Ser, purified as a complex as the wild type; not shown: His6, …

Experiments:
[1] = target: the molecule itself; test: crystal structure; mTAZ (25-57) with mTEAD4 (210-427), co-expressed and co-purified; hanging drops, 6% PEG 10000, 0.05 M magnesium acetate, 0.1 M tri-sodium citrate pH 5.2, 20 °C; 2.9 Å; 4 TAZ and 4 TEAD in the asymmetric unit, two binding modes (1:1 and 2:2)
[2] = target: T1, mTEAD4 (residues 210-427) Cys360Ser (mouse, UniProt Q62296 210-427, Cys360 replaced with serine); test: SEC; analytical gel filtration, Superdex 75 10/300 GL; control, cross-linked, and cross-linking reversed with 25 mM DTT for 1 hour at 25 °C; settings: both partners purified
T1 construct: TEAD4, mouse, residues 210-427, surface-exposed Cys360 replaced with serine; also called TEAD Cys360 to serine; source: E. coli BL21 (DE3), co-expressed with mTAZ (25-57) Asn33Cys, purified as a complex as the wild type

[3] = target: the molecule itself; test: cross-linking + SEC-MALS; specific disulfide cross-linking of TAZ Asn33Cys with 1.5 mM CuCl2 and 5 mM phenanthroline, 1 hour at 25 °C, stopped with 50 mM EDTA; Superdex 75 5/150 GL, 20 mM Tris pH 8, 150 mM sodium chloride

T1 sequence (Q62296 210-427 C360S): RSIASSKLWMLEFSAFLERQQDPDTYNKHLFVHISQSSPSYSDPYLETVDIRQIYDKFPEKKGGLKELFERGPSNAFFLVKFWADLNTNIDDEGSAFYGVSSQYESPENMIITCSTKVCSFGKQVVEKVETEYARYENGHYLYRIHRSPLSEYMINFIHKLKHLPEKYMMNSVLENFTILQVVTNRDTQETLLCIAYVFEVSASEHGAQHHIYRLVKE

| Binder | binding result [1] | stoichiometry N [2] | stoichiometry N [3] |
| --- | --- | --- | --- |
| B1 | binds |  |  |
| B2 |  | 1 | 2 |
